Test results taken from patent publication US20150344570A1 (published 2015).

T1: FcγRIIa H (human, UniProt P12318 34-217)
T1 construct: extracellular domain; also called FcγRIIa type H; 2aH
T1 sequence (looked up): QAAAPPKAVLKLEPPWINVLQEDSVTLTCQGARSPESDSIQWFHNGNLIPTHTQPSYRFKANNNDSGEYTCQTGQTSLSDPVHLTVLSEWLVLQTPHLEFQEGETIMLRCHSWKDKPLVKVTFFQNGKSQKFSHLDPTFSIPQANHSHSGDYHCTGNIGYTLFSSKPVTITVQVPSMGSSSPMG

T2: FcγRIIb (human, UniProt P31994 43-217)
T2 construct: extracellular domain; also called 2b; FcgRIIb
T2 sequence (looked up): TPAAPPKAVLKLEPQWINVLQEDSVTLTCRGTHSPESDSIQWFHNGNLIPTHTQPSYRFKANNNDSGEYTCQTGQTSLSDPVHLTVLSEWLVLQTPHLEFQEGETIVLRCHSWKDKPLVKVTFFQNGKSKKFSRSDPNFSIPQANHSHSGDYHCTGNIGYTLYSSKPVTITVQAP

B1: GpH7-A5/GpH7-B3 variant S298_19Q/GpL16-k0 (antibody, human IgG1, kappa)
heavy 1: not shown
heavy 2: not shown
light: DIVMTQSPLSLPVTPGEPASISCQASESLVHSNRNTYLHWYLQKPGQSPQLLIYKVSNRFSGVPDRFSGSGSGTDFTLKISRVEAEDVGVYYCSQNTHVPPTFGQGTKVEIERTVAAPSVFIFPPSDEQLKSGTASVVCLLNNFYPREAKVQWKVDNALQSGNSQESVTEQDSKDSTYSLSSTLTLSKADYEKHKVYACEVTHQGLSSPVTKSFNRGEC
notes: Heterodimerized anti-glypican-3 IgG1 (He Ab); mutation in the B3 H chain only; also called He Ab
B2: GpH7-A5/GpH7-B3 variant Y300_06M/GpL16-k0 (antibody, human IgG1, kappa)
heavy 1: not shown
heavy 2: not shown
light: DIVMTQSPLSLPVTPGEPASISCQASESLVHSNRNTYLHWYLQKPGQSPQLLIYKVSNRFSGVPDRFSGSGSGTDFTLKISRVEAEDVGVYYCSQNTHVPPTFGQGTKVEIERTVAAPSVFIFPPSDEQLKSGTASVVCLLNNFYPREAKVQWKVDNALQSGNSQESVTEQDSKDSTYSLSSTLTLSKADYEKHKVYACEVTHQGLSSPVTKSFNRGEC
notes: as for B1
B3: GpH7-A5/GpH7-B3 variant Y300_11K/GpL16-k0 (antibody, human IgG1, kappa)
heavy 1: not shown
heavy 2: not shown
light: DIVMTQSPLSLPVTPGEPASISCQASESLVHSNRNTYLHWYLQKPGQSPQLLIYKVSNRFSGVPDRFSGSGSGTDFTLKISRVEAEDVGVYYCSQNTHVPPTFGQGTKVEIERTVAAPSVFIFPPSDEQLKSGTASVVCLLNNFYPREAKVQWKVDNALQSGNSQESVTEQDSKDSTYSLSSTLTLSKADYEKHKVYACEVTHQGLSSPVTKSFNRGEC
notes: as for B1
B4: GpH7-A5/GpH7-B3 variant L328_11K/GpL16-k0 (antibody, human IgG1, kappa)
heavy 1: not shown
heavy 2: not shown
light: DIVMTQSPLSLPVTPGEPASISCQASESLVHSNRNTYLHWYLQKPGQSPQLLIYKVSNRFSGVPDRFSGSGSGTDFTLKISRVEAEDVGVYYCSQNTHVPPTFGQGTKVEIERTVAAPSVFIFPPSDEQLKSGTASVVCLLNNFYPREAKVQWKVDNALQSGNSQESVTEQDSKDSTYSLSSTLTLSKADYEKHKVYACEVTHQGLSSPVTKSFNRGEC
notes: Heterodimerized anti-glypican-3 IgG1; mutation in the GpH7-B3 chain only; also called He Ab
B5: GpH7-A5/GpH7-B3 variant Y300_05P/GpL16-k0 (antibody, human IgG1, kappa)
heavy 1: not shown
heavy 2: not shown
light: DIVMTQSPLSLPVTPGEPASISCQASESLVHSNRNTYLHWYLQKPGQSPQLLIYKVSNRFSGVPDRFSGSGSGTDFTLKISRVEAEDVGVYYCSQNTHVPPTFGQGTKVEIERTVAAPSVFIFPPSDEQLKSGTASVVCLLNNFYPREAKVQWKVDNALQSGNSQESVTEQDSKDSTYSLSSTLTLSKADYEKHKVYACEVTHQGLSSPVTKSFNRGEC
notes: Heterodimerized IgG1 antibody; alteration in the GpH7-B3 chain only; also called He Ab
B6: GpH7-A5/GpH7-B3 variant A327_12R/GpL16-k0 (antibody, human IgG1, kappa)
heavy 1: not shown
heavy 2: not shown
light: DIVMTQSPLSLPVTPGEPASISCQASESLVHSNRNTYLHWYLQKPGQSPQLLIYKVSNRFSGVPDRFSGSGSGTDFTLKISRVEAEDVGVYYCSQNTHVPPTFGQGTKVEIERTVAAPSVFIFPPSDEQLKSGTASVVCLLNNFYPREAKVQWKVDNALQSGNSQESVTEQDSKDSTYSLSSTLTLSKADYEKHKVYACEVTHQGLSSPVTKSFNRGEC
notes: as for B4
B7: GpH7-A5/GpH7-B3 variant L328_12R/GpL16-k0 (antibody, human IgG1, kappa)
heavy 1: not shown
heavy 2: not shown
light: DIVMTQSPLSLPVTPGEPASISCQASESLVHSNRNTYLHWYLQKPGQSPQLLIYKVSNRFSGVPDRFSGSGSGTDFTLKISRVEAEDVGVYYCSQNTHVPPTFGQGTKVEIERTVAAPSVFIFPPSDEQLKSGTASVVCLLNNFYPREAKVQWKVDNALQSGNSQESVTEQDSKDSTYSLSSTLTLSKADYEKHKVYACEVTHQGLSSPVTKSFNRGEC
notes: as for B4
B8: GpH7-A5/GpH7-B3 variant Y300_02A/GpL16-k0 (antibody, human IgG1, kappa)
heavy 1: not shown
heavy 2: not shown
light: DIVMTQSPLSLPVTPGEPASISCQASESLVHSNRNTYLHWYLQKPGQSPQLLIYKVSNRFSGVPDRFSGSGSGTDFTLKISRVEAEDVGVYYCSQNTHVPPTFGQGTKVEIERTVAAPSVFIFPPSDEQLKSGTASVVCLLNNFYPREAKVQWKVDNALQSGNSQESVTEQDSKDSTYSLSSTLTLSKADYEKHKVYACEVTHQGLSSPVTKSFNRGEC
notes: as for B1
B9: GpH7-A5/GpH7-B3 variant Y300_01G/GpL16-k0 (antibody, human IgG1, kappa)
heavy 1: not shown
heavy 2: not shown
light: DIVMTQSPLSLPVTPGEPASISCQASESLVHSNRNTYLHWYLQKPGQSPQLLIYKVSNRFSGVPDRFSGSGSGTDFTLKISRVEAEDVGVYYCSQNTHVPPTFGQGTKVEIERTVAAPSVFIFPPSDEQLKSGTASVVCLLNNFYPREAKVQWKVDNALQSGNSQESVTEQDSKDSTYSLSSTLTLSKADYEKHKVYACEVTHQGLSSPVTKSFNRGEC
notes: as for B1
B10: GpH7-A5/GpH7-B3 variant S298_20W/GpL16-k0 (antibody, human IgG1, kappa)
heavy 1: not shown
heavy 2: not shown
light: DIVMTQSPLSLPVTPGEPASISCQASESLVHSNRNTYLHWYLQKPGQSPQLLIYKVSNRFSGVPDRFSGSGSGTDFTLKISRVEAEDVGVYYCSQNTHVPPTFGQGTKVEIERTVAAPSVFIFPPSDEQLKSGTASVVCLLNNFYPREAKVQWKVDNALQSGNSQESVTEQDSKDSTYSLSSTLTLSKADYEKHKVYACEVTHQGLSSPVTKSFNRGEC
notes: as for B1
B11: GpH7-A5/GpH7-B3 variant Y300_08L/GpL16-k0 (antibody, human IgG1, kappa)
heavy 1: not shown
heavy 2: not shown
light: DIVMTQSPLSLPVTPGEPASISCQASESLVHSNRNTYLHWYLQKPGQSPQLLIYKVSNRFSGVPDRFSGSGSGTDFTLKISRVEAEDVGVYYCSQNTHVPPTFGQGTKVEIERTVAAPSVFIFPPSDEQLKSGTASVVCLLNNFYPREAKVQWKVDNALQSGNSQESVTEQDSKDSTYSLSSTLTLSKADYEKHKVYACEVTHQGLSSPVTKSFNRGEC
notes: as for B1
B12: GpH7-A5/GpH7-B3 variant Y300_03V/GpL16-k0 (antibody, human IgG1, kappa)
heavy 1: not shown
heavy 2: not shown
light: DIVMTQSPLSLPVTPGEPASISCQASESLVHSNRNTYLHWYLQKPGQSPQLLIYKVSNRFSGVPDRFSGSGSGTDFTLKISRVEAEDVGVYYCSQNTHVPPTFGQGTKVEIERTVAAPSVFIFPPSDEQLKSGTASVVCLLNNFYPREAKVQWKVDNALQSGNSQESVTEQDSKDSTYSLSSTLTLSKADYEKHKVYACEVTHQGLSSPVTKSFNRGEC
notes: as for B1
B13: GpH7-A5/GpH7-B3 variant Y300_07I/GpL16-k0 (antibody, human IgG1, kappa)
heavy 1: not shown
heavy 2: not shown
light: DIVMTQSPLSLPVTPGEPASISCQASESLVHSNRNTYLHWYLQKPGQSPQLLIYKVSNRFSGVPDRFSGSGSGTDFTLKISRVEAEDVGVYYCSQNTHVPPTFGQGTKVEIERTVAAPSVFIFPPSDEQLKSGTASVVCLLNNFYPREAKVQWKVDNALQSGNSQESVTEQDSKDSTYSLSSTLTLSKADYEKHKVYACEVTHQGLSSPVTKSFNRGEC
notes: as for B1

Assays:
FcγRIIa H [1] = biological target: T1, FcγRIIa H; test: ratio of He/Con_2aH to He/Con_2b (FcγRIIb); SPR
FcγRIIa H [2] = biological target: T1, FcγRIIa H; test: SPR (Biacore), captured antibody, FcγR as analyte; GpH7-A5/GpH7-B3/GpL16-k0 = 100
Experimental: (§1) The heterodimerized antibodies He Abs in which one of the H chains was introduced with an alteration were assayed for their binding activities to each activating FcγR and inhibitory FcγR according to the method described in Example 4. […] The activating FcγRs in FIGS. 26, 27, 28, and 29 are FcγRIa, FcγRIIa (R), FcγRIIa (H), and FcγRIIIa, respectively.
(§2) Analysis of interaction between objective antibody and the FcγR was carried out using Biacore T100 (GE Healthcare). HBS-EP+ (GE Healthcare) was used as the running buffer, and the measurement temperature was set to 25° C. Chips produced by immobilizing the antigen peptide by the amine coupling method to a Series S Sencor Chip CM5 (GE Healthcare), or alternatively, chips produced by allowing preliminarily biotinylated antigen peptides to interact with and immobilize onto a Series S Sensor Chip SA (certified) (GE Healthcare) were used. Antibodies of interest were captured onto an antigen peptide-immobilized chip, and allowed to interact to each FcγR diluted with running buffer. To regenerate and repeatedly use the chip, the antibodies captured on the chip were washed off by reacting 10 mM glycine-HCl, pH 1.5.

FcγRIIb = biological target: T2, FcγRIIb; test: as above
Experimental: as §1, §2

[3] = biological target: T3, FcγRIIIa extracellular domain with C-terminal His tag (human, UniProt P08637 17-208); test: SPR (Biacore), antibody captured on antigen peptide chip, FcγR as analyte; GpH7-A5/GpH7-B3/GpL16-k0 = 100
T3 construct: extracellular domain; also called FcgRIIIa; 3a
Experimental: as §1, §2
T3 sequence (P08637 17-208): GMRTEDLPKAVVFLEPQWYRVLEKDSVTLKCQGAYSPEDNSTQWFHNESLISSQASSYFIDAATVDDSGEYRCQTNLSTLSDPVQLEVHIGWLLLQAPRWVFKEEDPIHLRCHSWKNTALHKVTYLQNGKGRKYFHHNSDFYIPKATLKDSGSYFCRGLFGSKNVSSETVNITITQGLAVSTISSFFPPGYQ

[4] = biological target: T3, FcγRIIIa extracellular domain with …; test: SPR (Biacore); He/Con_3a divided by He/Con_2b (FcγRIIIa against FcγRIIb)
Experimental: as §1, §2

[5] = biological target: T4, FcγRIIIa extracellular domain with C-terminal His tag (human, UniProt P08637 17-208); test: SPR (Biacore); He/Con_3a divided by He/Con_2b (FcγRIIb)
T4 construct: extracellular domain; also called FcgRIIIa; 3a; not shown: His tag at the C terminus
T4 sequence (P08637 17-208): as above

[6] = biological target: T4, FcγRIIIa extracellular domain with …; test: SPR (Biacore), FcγR as analyte over captured antibody; GpH7-A5/GpH7-B3/GpL16-k0 = 100
Experimental: as §1, §2

| Binder | He_2aH/2b (IIaH/IIb ratio) (FcγRIIa H [1]) | He/Con_2aH (relative binding) (FcγRIIa H [2]) [%] | He/Con_2b (relative binding) (FcγRIIb) [%] | He/Con_3a (relative binding activity) [3] | He_3a/2b (IIIa/IIb) [4] [ratio] | He_3a/2b (IIIa/IIb) [5] [ratio] | He/Con_3a [6] |
| --- | --- | --- | --- | --- | --- | --- | --- |
| B1 | 1.24 | 91 | 73.3 |  |  |  |  |
| B2 | 1.24 | 105 | 84.3 |  |  |  |  |
| B3 | 1.3 | 66.9 | 51.6 |  |  |  |  |
| B4 |  |  |  | 33.5 % of control | 4.46 |  |  |
| B5 |  |  |  |  |  | 0.38 | 2.8 % of control |
| B6 |  |  |  | 19.3 % of control | 2.15 |  |  |
| B7 |  |  |  | 32.7 % of control | 3.53 |  |  |
| B8 | 1.35 | 93.5 | 69.2 |  |  |  |  |
| B9 | 1.54 | 74.4 | 48.4 |  |  |  |  |
| B10 | 1.21 | 49.9 | 41.1 |  |  |  |  |
| B11 | 1.47 | 108 | 73.6 |  |  |  |  |
| B12 | 1.33 | 98 | 73.9 |  |  |  |  |
| B13 | 1.45 | 108 | 74.5 |  |  |  |  |
